How the values were obtained:
IMP1 KH1KH2DD [1] = target: T1, IMP1 KH1KH2DD (Homo sapiens, UniProt Q9NZI8 194-369, K294D;E295D); experiment: ITC; 10 mM sodium phosphate pH 7.4, 50 mM NaCl; ITC 25 C with 2 mM TCEP; BLI 30 C with 0.5 mM TCEP and 0.5 mg/ml BSA; NMR 0.5 mM TCEP; RNAsin 40-100 u/ml; details: protein: recombinant; tags: 6xHis-GST removed by TEV
IMP1 KH1DDKH2 = IMP1 KH1DDKH2 (Homo sapiens, UniProt Q9NZI8 194-369, K213D;E214D); experiment: as above; details: protein: recombinant; tags: 6xHis-GST removed by TEV
IMP1 KH1KH2 wild type = IMP1 KH1KH2 wild type (Homo sapiens, UniProt Q9NZI8 194-369); experiment: BLI; 10 mM sodium phosphate pH 7.4, 50 mM NaCl; ITC 25 C with 2 mM TCEP; BLI 30 C with 0.5 mM TCEP and 0.5 mg/ml BSA; NMR 0.5 mM TCEP; RNAsin 40-100 u/ml; details: protein: recombinant; tags: 6xHis-GST removed by TEV; label: 5'-biotin
IMP1 KH1KH2DD [2] = target: T1, IMP1 KH1KH2DD; experiment: as above; details: protein: recombinant; tags: 6xHis-GST removed by TEV; label: 5'-biotin

T1 sequence (Q9NZI8 194-369 K294D/E295D): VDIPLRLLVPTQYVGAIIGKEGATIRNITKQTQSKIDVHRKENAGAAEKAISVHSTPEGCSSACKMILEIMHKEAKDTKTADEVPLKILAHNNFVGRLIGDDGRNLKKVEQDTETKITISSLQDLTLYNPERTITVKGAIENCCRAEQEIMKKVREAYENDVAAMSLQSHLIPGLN
Sequence of IMP1 KH1DDKH2 (Q9NZI8 194-369 K213D/E214D): as the sequence (Q9NZI8 194-369 K294D/E295D) above, with K20D, E21D, D101K, D102E counted along it
Sequence of IMP1 KH1KH2 wild type (Q9NZI8 194-369): as the sequence (Q9NZI8 194-369 K294D/E295D) above, with D101K, D102E counted along it

UGCGU (ssRNA)
Kd (IMP1 KH1KH2DD [1]): 26000 ± 2000 nM

UCCCG (ssRNA)
Kd (IMP1 KH1DDKH2): 100000 ± 4000 nM

UCCCU (ssRNA)
binding result (IMP1 KH1KH2DD [1]): no binding

UCCGU (ssRNA)
Kd (IMP1 KH1KH2DD [1]): 500 ± 10 nM

UUCGU (ssRNA)
Kd (IMP1 KH1KH2DD [1]): 25000 ± 2000 nM

UACGU (ssRNA)
Kd (IMP1 KH1KH2DD [1]): 25000 ± 1000 nM

UUCCG (ssRNA)
Kd (IMP1 KH1DDKH2): 124000 ± 15000 nM

CACAGCAUACAUCCUGUCCGUC (ssRNA) [MYCRNA]
Kd (IMP1 KH1KH2 wild type): 46 ± 8 nM
Kd (IMP1 KH1KH2DD [2]): 1760 ± 200 nM

UCCGC (ssRNA)
Kd (IMP1 KH1KH2DD [1]): 800 ± 40 nM

UCAGU (ssRNA)
Kd (IMP1 KH1KH2DD [1]): 1000 ± 30 nM

UCUGU (ssRNA)
Kd (IMP1 KH1KH2DD [1]): 2600 ± 80 nM

Source: paper PMC6486635, “IMP1 KH1 and KH2 domains create a structural platform with unique RNA recognition and re-modelling properties”
